The record followed here is patent US20140271457A1 (AbbVie / Abbott, published 2014).

B1: DVD3098 (bispecific antibody, human IgG1, kappa)
heavy: not shown
light: DVVMTQSPLSLPVTLGQPASISCRSSQSLVHSHGNTYLHWYQQRPGQSPRLLIYTVSNRFSGVPDRFSGSGSGTDFTLKISRVEAEDVGVYYCSQSTHVPYTFGGGTKVEIKRGGSGGGGSGDIQMTQSPSSLSASVGDRVTITCKASQLVSSAVAWYQQKPGKAPKLLIYWASTLHTGVPSRFSGSGSGTDFTLTISSLQPEDFATYYCQQHYRTPFTFGQGTKLEIKRTVAAPSVFIFPPSDEQLKSGTASVVCLLNNFYPREAKVQWKVDNALQSGNSQESVTEQDSKDSTYSLSSTLTLSKADYEKHKVYACEVTHQGLSSPVTKSFNRGEC
B2: DVD3111 (bispecific antibody, human IgG1, kappa)
heavy: not shown
light: DVVMTQSPLSLPVTLGQPASISCRSSQSLVHSHGNTYLHWYQQRPGQSPRLLIYTVSNRFSGVPDRFSGSGSGTDFTLKISRVEAEDVGVYYCSQSTHVPYTFGGGTKVEIKRTVAAPSVFIFPPDIQMTQSPSSLSASVGDRVTITCRASQDISQYLNWYQQKPGKAPKLLIYYTSRLQSGVPSRFSGSGSGTDFTLTISSLQPEDFATYFCQQGNTWPPTFGQGTKLEIKRTVAAPSVFIFPPSDEQLKSGTASVVCLLNNFYPREAKVQWKVDNALQSGNSQESVTEQDSKDSTYSLSSTLTLSKADYEKHKVYACEVTHQGLSSPVTKSFNRGEC
B3: DVD3104 (bispecific antibody, human IgG1, kappa)
heavy: not shown
light: DIQMTQSPSSLSASVGDRVTITCRASQDISQYLNWYQQKPGKAPKLLIYYTSRLQSGVPSRFSGSGSGTDFTLTISSLQPEDFATYFCQQGNTWPPTFGQGTKLEIKRTVAAPDIQMTQSPSSLSASVGDRVTITCRASQLVSSAVAWYQQKPGKAPKLLIYWASARHTGVPSRFSGSGSGTDFTLTISSLQPEDFATYYCQQHYKTPFTFGQGTKLEIKRTVAAPSVFIFPPSDEQLKSGTASVVCLLNNFYPREAKVQWKVDNALQSGNSQESVTEQDSKDSTYSLSSTLTLSKADYEKHKVYACEVTHQGLSSPVTKSFNRGEC
B4: DVD3091 (bispecific antibody, human IgG1, kappa)
heavy: not shown
light: DVVMTQSPLSLPVTLGQPASISCRSSQSLVHSHGNTYLHWYQQRPGQSPRLLIYTVSNRFSGVPDRFSGSGSGTDFTLKISRVEAEDVGVYYCSQSTHVPYTFGGGTKVEIKRTVAAPSVFIFPPDIQMTQSPSSLSASVGDRVTITCRASQLVSSAVAWYQQKPGKAPKLLIYWASARHTGVPSRFSGSGSGTDFTLTISSLQPEDFATYYCQQHYKTPFTFGQGTKLEIKRTVAAPSVFIFPPSDEQLKSGTASVVCLLNNFYPREAKVQWKVDNALQSGNSQESVTEQDSKDSTYSLSSTLTLSKADYEKHKVYACEVTHQGLSSPVTKSFNRGEC
B5: DVD3101 (bispecific antibody, human IgG1, kappa)
heavy: not shown
light: B4 light with R149K, A178T, R179L, K218R
B6: DVD3106 (bispecific antibody)
heavy: not shown
light: DIQMTQSPSSLSASVGDRVTITCRASQDISQYLNWYQQKPGKAPKLLIYYTSRLQSGVPSRFSGSGSGTDFTLTISSLQPEDFATYFCQQGNTWPPTFGQGTKLEIKRTVAAPSVFIFPPDVVMTQSPLSLPVTLGQPASISCRSSQSLVHSHGNTYLHWYQQRPGQSPRLLIYTVSNRFSGVPDRFSGSGSGTDFTLKISRVEAEDVGVYYCSQSTHVPYTFGGGTKVEIKRTVAAPSVFIFPPSDEQLKSGTASVVCLLNNFYPREAKVQWKVDNALQSGNSQESVTEQDSKDSTYSLSSTLTLSKADYEKHKVYACEVTHQGLSSPVTKSFNRGEC
B7: DVD3116 (bispecific antibody)
heavy: not shown
light: B6 light with S30E, Q31N, W94Q
B8: DVD3109 (bispecific antibody, human IgG1, kappa)
heavy: not shown
light: DVVMTQSPLSLPVTLGQPASISCRSSQSLVHSHGNTYLHWYQQRPGQSPRLLIYTVSNRFSGVPDRFSGSGSGTDFTLKISRVEAEDVGVYYCSQSTHVPYTFGGGTKVEIKRTVAAPDIQMTQSPSSLSASVGDRVTITCRASQDISQYLNWYQQKPGKAPKLLIYYTSRLQSGVPSRFSGSGSGTDFTLTISSLQPEDFATYFCQQGNTWPPTFGQGTKLEIKRTVAAPSVFIFPPSDEQLKSGTASVVCLLNNFYPREAKVQWKVDNALQSGNSQESVTEQDSKDSTYSLSSTLTLSKADYEKHKVYACEVTHQGLSSPVTKSFNRGEC
B9: DVD3112 (bispecific antibody, human IgG1, kappa)
heavy: not shown
light: B8 light
B10: DVD3092 (bispecific antibody, human IgG1, kappa)
heavy: not shown
light: DVVMTQSPLSLPVTLGQPASISCRSSQSLVHSHGNTYLHWYQQRPGQSPRLLIYTVSNRFSGVPDRFSGSGSGTDFTLKISRVEAEDVGVYYCSQSTHVPYTFGGGTKVEIKRTVAAPDIQMTQSPSSLSASVGDRVTITCRASQLVSSAVAWYQQKPGKAPKLLIYWASARHTGVPSRFSGSGSGTDFTLTISSLQPEDFATYYCQQHYKTPFTFGQGTKLEIKRTVAAPSVFIFPPSDEQLKSGTASVVCLLNNFYPREAKVQWKVDNALQSGNSQESVTEQDSKDSTYSLSSTLTLSKADYEKHKVYACEVTHQGLSSPVTKSFNRGEC
B11: DVD3099 (bispecific antibody, human IgG1, kappa)
heavy: not shown
light: B10 light with R142K, A171T, R172L, K211R
B12: DVD3102 (bispecific antibody, human IgG1, kappa)
heavy: not shown
light: B10 light with R142K, A171T, R172L, K211R
B13: DVD3107 (bispecific antibody)
heavy: not shown
light: DIQMTQSPSSLSASVGDRVTITCRASQDISQYLNWYQQKPGKAPKLLIYYTSRLQSGVPSRFSGSGSGTDFTLTISSLQPEDFATYFCQQGNTWPPTFGQGTKLEIKRTVAAPDVVMTQSPLSLPVTLGQPASISCRSSQSLVHSHGNTYLHWYQQRPGQSPRLLIYTVSNRFSGVPDRFSGSGSGTDFTLKISRVEAEDVGVYYCSQSTHVPYTFGGGTKVEIKRTVAAPSVFIFPPSDEQLKSGTASVVCLLNNFYPREAKVQWKVDNALQSGNSQESVTEQDSKDSTYSLSSTLTLSKADYEKHKVYACEVTHQGLSSPVTKSFNRGEC
B14: DVD3114 (bispecific antibody)
heavy: not shown
light: B13 light with S30E, Q31N, W94Q
B15: DVD3103 (bispecific antibody, human IgG1, kappa)
heavy: not shown
light: DIQMTQSPSSLSASVGDRVTITCRASQDISQYLNWYQQKPGKAPKLLIYYTSRLQSGVPSRFSGSGSGTDFTLTISSLQPEDFATYFCQQGNTWPPTFGQGTKLEIKRGGSGGGGSGDIQMTQSPSSLSASVGDRVTITCRASQLVSSAVAWYQQKPGKAPKLLIYWASARHTGVPSRFSGSGSGTDFTLTISSLQPEDFATYYCQQHYKTPFTFGQGTKLEIKRTVAAPSVFIFPPSDEQLKSGTASVVCLLNNFYPREAKVQWKVDNALQSGNSQESVTEQDSKDSTYSLSSTLTLSKADYEKHKVYACEVTHQGLSSPVTKSFNRGEC
B16: DVD3113 (bispecific antibody)
heavy: not shown
light: DIQMTQSPSSLSASVGDRVTITCRASQDIENYLNWYQQKPGKAPKLLIYYTSRLQSGVPSRFSGSGSGTDFTLTISSLQPEDFATYFCQQGNTQPPTFGQGTKLEIKRGGSGGGGSGDVVMTQSPLSLPVTLGQPASISCRSSQSLVHSHGNTYLHWYQQRPGQSPRLLIYTVSNRFSGVPDRFSGSGSGTDFTLKISRVEAEDVGVYYCSQSTHVPYTFGGGTKVEIKRTVAAPSVFIFPPSDEQLKSGTASVVCLLNNFYPREAKVQWKVDNALQSGNSQESVTEQDSKDSTYSLSSTLTLSKADYEKHKVYACEVTHQGLSSPVTKSFNRGEC

Residue numbers refer to the chain shown, from its start.

For the assay, the target named is Recombinant Human IL-13 (human, UniProt P35225 35-146, limits assumed). The assay can be described thus: cell-based or functional assay.
Sequence of Recombinant Human IL-13 (P35225 35-146 limits assumed): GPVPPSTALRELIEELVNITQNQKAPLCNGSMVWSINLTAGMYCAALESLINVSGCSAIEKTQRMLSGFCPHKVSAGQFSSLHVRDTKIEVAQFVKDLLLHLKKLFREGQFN
With B1, the “IL-13 Neutralization Assay IC50” value was found to be 0.059 nM.
In the case of B2 it was 0.018 nM; in that of B3, 1.05 nM; in that of B4, 0.056 nM.
With B5, the “IL-13 Neutralization Assay IC50” value worked out at 0.037 nM.
Consider B6, for which the “IL-13 Neutralization Assay IC50” value amounted to 0.074 nM.
As to B7, the “IL-13 Neutralization Assay IC50” value was 0.081 nM.
In the case of B8, the “IL-13 Neutralization Assay IC50” value is 0.044 nM.
With B9, the “IL-13 Neutralization Assay IC50” value is 0.017 nM.
As for B10, the “IL-13 Neutralization Assay IC50” value is 0.06 nM.
In the case of B11 it was 0.014 nM.
For the molecule B12, the “IL-13 Neutralization Assay IC50” value turned out to be 0.025 nM.
The figure for B13 is 0.029 nM; for B14 it is 0.781 nM; for B15 it is 0.042 nM.
The figure for B16 is 0.065 nM.
